Source: the supplement of paper PMC9233669
Variants at the floor of the assay were thinned out.

Legend:
biotinyl-Phe-oxazolone = assay: self-aminoacylation, catalytic enhancement (BFO) (fold over background); higher = more active; k-Seq, kA / k0A0; sequences stand for … in GGGAAUGGAUCCACAUCUACGAAUUC…UUCACUGCAGACUUGACGAAGCUG
In short: (§1)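 Mutagenized RNA pools with a 21-nt variable region (0.43 μM) were reacted with each biotinyl-aminoacyl-oxazolone at 2–1250 μM for 90 minutes at room temperature, in 50 μL HEPES/NaCl/KCl/MgCl2/CaCl2 buffer containing 5% acetonitrile at pH 6.9–7.0. RNA captured on streptavidin was quantified by triplicate qPCR and by Illumina sequencing. The fraction reacted for each sequence was fit to a pseudo-first-order model with bootstrapping, and catalytic enhancement is the median kA divided by the uncatalyzed rate, taken as the low-activity peak of a bimodal Gaussian fit.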

biotinyl-Ile-oxazolone = assay: self-aminoacylation, catalytic enhancement (BIO) (fold over background); higher = more active; k-Seq, kA / k0A0; sequences stand for … in GGGAAUGGAUCCACAUCUACGAAUUC…UUCACUGCAGACUUGACGAAGCUG
In short: as §1

biotinyl-Met-oxazolone = assay: self-aminoacylation, catalytic enhancement (BMO) (fold over background); higher = more active; k-Seq, kA / k0A0; sequences stand for … in GGGAAUGGAUCCACAUCUACGAAUUC…UUCACUGCAGACUUGACGAAGCUG
In short: as §1

biotinyl-Val-oxazolone = assay: self-aminoacylation, catalytic enhancement (BVO) (fold over background); higher = more active; k-Seq, kA / k0A0; sequences stand for … in GGGAAUGGAUCCACAUCUACGAAUUC…UUCACUGCAGACUUGACGAAGCUG
In short: as §1

biotinyl-Leu-oxazolone = assay: self-aminoacylation, catalytic enhancement (BLO) (fold over background); higher = more active; k-Seq, kA / k0A0; sequences stand for … in GGGAAUGGAUCCACAUCUACGAAUUC…UUCACUGCAGACUUGACGAAGCUG
In short: as §1

biotinyl-Trp-oxazolone = assay: self-aminoacylation, catalytic enhancement (BWO) (fold over background); higher = more active; k-Seq, kA / k0A0; sequences stand for … in GGGAAUGGAUCCACAUCUACGAAUUC…UUCACUGCAGACUUGACGAAGCUG
In short: as §1

Sequence	self-aminoacylation (biotinyl-Phe-oxazolone)	self-aminoacylation (biotinyl-Ile-oxazolone)	self-aminoacylation (biotinyl-Met-oxazolone)	self-aminoacylation (biotinyl-Val-oxazolone)	self-aminoacylation (biotinyl-Leu-oxazolone)	self-aminoacylation (biotinyl-Trp-oxazolone)
CUACUUCGUACAAUCGGUCUG [Fam1A.1 aminoacylation ribozyme variant]	0.251	0.571	0.519	0.685	0.596	0.327
AUUCACCUAGGUUAUCGCGUG [Fam2.2 aminoacylation ribozyme variant]	20.7	2.09	3.16	2.64	3.29	3.11
AAAUUUCCUAAUAGUCGCAAG [Fam3.1 aminoacylation ribozyme variant]	1.2	1.24	1.1	1.09	1.18	0.976
AUUCACCUAGCUCAUCGGGCG [Fam2.2 aminoacylation ribozyme variant]	11.7	2.26	2.3	2.57	2.33	1.8
UUUACCCUGGUCAUCAAGUGA [Fam2.1 aminoacylation ribozyme variant]	3.22	1.25	2.24	1.63	1.85	3.07
UUUACCCUGGUCAUUGAGUGA [Fam2.1 aminoacylation ribozyme variant]	38.1	3.76	7.86	3.91	7.06	10.1
AUUACCCUGGUGAACGAGUGA [Fam2.1 aminoacylation ribozyme variant]	2.79	1.42	2.47	1.65	2.25	2.82
AUUUACCUUGGUCAUCGGGUG [Fam2.2 aminoacylation ribozyme variant]	45.7	4.48	7.16	4.81	8.83	6.6
AUUCACCUAGGUCCUCGGGUG [Fam2.2 aminoacylation ribozyme variant]	30.2	3.08	4.59	3.13	5.91	4.22
AUUACCCUGGUCCUCGAGUAA [Fam2.1 aminoacylation ribozyme variant]	0.542	1.35	0.966	1.36	1.33	1.64
CCACACUUCAUGCGAUCGGUC [Fam1B.1 aminoacylation ribozyme variant]	0.762	1.1	0.828	1.17	1.12	0.917
GUACUUCAAACAAUCGAUCUG [Fam1A.1 aminoacylation ribozyme variant]	1.72	1.18	0.863	0.987	0.862	1.64
CCACACUUCCAGCAAUCGGGC [Fam1B.1 aminoacylation ribozyme variant]	1.84	2	1.72	2.32	1.74	2.82
AUUCACCUAGGUCCUCGGAUG [Fam2.2 aminoacylation ribozyme variant]	0.427	0.964	0.966	0.89	1.07	0.587
CCACACUUCUAUCAAUCGGUC [Fam1B.1 aminoacylation ribozyme variant]	0.846	0.657	0.718	0.743	0.521	0.659
AUUACCCUAUUCAUCGAGUGA [Fam2.1 aminoacylation ribozyme variant]	17.3	2.37	4.25	2.66	4.15	6.86
AUUACCCCGGUCAACGAGUGA [Fam2.1 aminoacylation ribozyme variant]	28.2	3.08	5.86	3.47	4.74	6.44
AAGUUGGCUAAUAGUCGCACG [Fam3.1 aminoacylation ribozyme variant]	2.62	1.35	1.61	1.63	1.81	2.11
AUUACCCUGGCCACCGAGUGA [Fam2.1 aminoacylation ribozyme variant]	35.6	2.92	4.99	3.34	5.59	3.89
CUACUUCAAACAUUCGGUAUG [Fam1A.1 aminoacylation ribozyme variant]	0.64	0.968	0.993	1.12	1.05	0.924
AAGUUGGCUAAUAGUCGCAAC [Fam3.1 aminoacylation ribozyme variant]	2.17	1.75	1.31	1.4	1.42	1.93
CUGCUUCAAACAAUCGGUCUU [Fam1A.1 aminoacylation ribozyme variant]	107	1.84	1.91	1.72	2.97	52
GUUACCCUGGUCACCGAGUGA [Fam2.1 aminoacylation ribozyme variant]	79.2	5.31	11.2	6.95	13.1	14.8
AUUACCCUGGUCACCAAGUGA [Fam2.1 aminoacylation ribozyme variant]	34.3	3.47	6.45	3.32	6.54	7.7
CCACACUUCAUGCAAUCGAUC [Fam1B.1 aminoacylation ribozyme variant]	0.923	0.552	0.528	0.721	0.489	0.336
AAAUUUGCUAAUAGUCGCAUG [Fam3.1 aminoacylation ribozyme variant]	2.04	2.28	2.13	1.8	2.81	3.67

Sequence	self-aminoacylation (biotinyl-Phe-oxazolone)	self-aminoacylation (biotinyl-Ile-oxazolone)	self-aminoacylation (biotinyl-Met-oxazolone)	self-aminoacylation (biotinyl-Val-oxazolone)	self-aminoacylation (biotinyl-Leu-oxazolone)	self-aminoacylation (biotinyl-Trp-oxazolone)
AGUACCUUGGUCAUCGAGUGA [Fam2.1 aminoacylation ribozyme variant]	19	4.3	6.27	4.07	6.37	8.17
AUCCACCUAGGUGAUCGGGUG [Fam2.2 aminoacylation ribozyme variant]	35.5	4.38	6.1	4.45	5.68	5.98
AUUCACCUAGGUCAUGGAGUG [Fam2.2 aminoacylation ribozyme variant]	7.91	2.31	3.29	2.49	4.09	3.68
GUUCACCUAGGUCAUGGGGUG [Fam2.2 aminoacylation ribozyme variant]	10.3	2.64	3.63	3.01	4.4	4.06
AAGUUUGCUAAUACCCGCAAG [Fam3.1 aminoacylation ribozyme variant]	0.631	0.909	0.577	0.838	0.783	1.45
AUUCACCUGGGUCAUCUGGUG [Fam2.2 aminoacylation ribozyme variant]	21	2.18	2.83	2	3.46	2.99
CCACAGUUCAAGCAAUCAGUC [Fam1B.1 aminoacylation ribozyme variant]	1.73	0.829	0.662	0.781	0.76	0.814
CUACUUCAACCUAUCGGUCUG [Fam1A.1 aminoacylation ribozyme variant]	1.32	1.01	1.03	0.884	0.79	1.02
AGUCACCUAGGUCUUCGGGUG [Fam2.2 aminoacylation ribozyme variant]	56.4	6.51	6.75	6.48	8.46	8.99
AUUCACCUAGGUCACCCGGUG [Fam2.2 aminoacylation ribozyme variant]	37.3	9.3	7.32	7.55	9.93	5.82
AAUCAUCUAGGUCAUCGGGUG [Fam2.2 aminoacylation ribozyme variant]	41.3	4.54	5.64	4.6	5.48	7.01
CUACUUCAUACAAUCGGGCUG [Fam1A.1 aminoacylation ribozyme variant]	0.688	1.11	0.744	0.994	0.877	0.764
UUUACCGUGGUCAUCGAGUGA [Fam2.1 aminoacylation ribozyme variant]	17.7	3.2	5.63	3.63	5.18	7.07
AUUACCCUGGUGAUCGAGUGG [Fam2.1 aminoacylation ribozyme variant]	3.23	1.11	1.79	1.26	1.63	1.82
CCACGCUUCAGGCAAUCGGUC [Fam1B.1 aminoacylation ribozyme variant]	1.41	1.22	1.35	1.77	1.39	1.35
AUUCACGUAGGGCAUCGGGUG [Fam2.2 aminoacylation ribozyme variant]	43.3	3.79	4.63	5.03	6.02	5.13
CUUCACCUAGGUCAUCGGGUA [Fam2.2 aminoacylation ribozyme variant]	23.4	4.43	6.65	5.19	7.28	5.72
AAGUUUGCCUAUAGUCGCAAG [Fam3.1 aminoacylation ribozyme variant]	0.956	0.844	0.706	0.981	0.718	0.784
AUUCACCUAGGUCAUGGUGUG [Fam2.2 aminoacylation ribozyme variant]	0.397	0.936	0.846	0.932	0.994	0.519
AUAACCCUGGUCAGCGAGUGA [Fam2.1 aminoacylation ribozyme variant]	25.1	3.52	4.66	2.92	5.25	6.19
CUACUUCCAACAAUCGGUCAG [Fam1A.1 aminoacylation ribozyme variant]	1.04	0.795	0.62	0.774	0.663	0.518
UUUACCCUGGUCAUCGAGUUA [Fam2.1 aminoacylation ribozyme variant]	16.7	3.03	7.29	3.5	6.2	6.24
AUUCACCUAGGUAAUCCGGUG [Fam2.2 aminoacylation ribozyme variant]	30.4	2.33	3.77	2.39	4.57	4.8
AUUACCCUGGCCAUAGAGUGA [Fam2.1 aminoacylation ribozyme variant]	5.34	2.6	4.15	2.51	4.73	6.32
AUGCACCUAGGUCAUCGGGCG [Fam2.2 aminoacylation ribozyme variant]	13.5	2.08	2.37	2.47	3.22	2.53
